The target in one test is Hu_CRD1-CRD2 (human) (UniProt Q07011). Description: flow cytometry, yeast display [Cont.].
For test [1], the target named is Hu_CRD1-CRD2-CRD3 (human) (UniProt Q07011). Description: flow cytometry, yeast display [Cont.].
The next test addresses Hu_CRD2 (human) (UniProt Q07011). Description: flow cytometry, yeast display [Cont.].
The next test deals with Hu_CRD2-CRD3 (human) (UniProt Q07011). Description: flow cytometry, yeast display [Cont.].
The target in test [2] is Hu_CRD2-CRD3-CRD4 (human) (UniProt Q07011). Description: flow cytometry, yeast display [Cont.]. On the technique in general: In flow cytometry, cells or beads pass a laser one at a time.
Hu_CRD2-CRD3-CRD4 (human), sequence (Q07011 46-159 limits assumed): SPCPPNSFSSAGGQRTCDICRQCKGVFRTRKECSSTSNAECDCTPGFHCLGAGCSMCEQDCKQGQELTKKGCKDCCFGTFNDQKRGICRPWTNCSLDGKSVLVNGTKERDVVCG
The target in a further test is Hu_CRD3-CRD4 (human) (UniProt Q07011). Description: flow cytometry, yeast display [Cont.].
Hu_CRD3-CRD4 (human), sequence (Q07011 87-159 limits assumed): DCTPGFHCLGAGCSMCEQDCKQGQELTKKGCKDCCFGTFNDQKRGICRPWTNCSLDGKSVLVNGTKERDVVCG
In the next test the target is Hu_CRD4 (human) (UniProt Q07011). Kind of test: flow cytometry, yeast display [Cont.].
Hu_CRD4 (human), sequence (Q07011 119-159 limits assumed): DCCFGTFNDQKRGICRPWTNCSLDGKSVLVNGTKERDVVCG
Test [3] concerns the target full-length human CD137 on the cell surface (human) (UniProt Q07011). Kind of test: flow cytometry, yeast display [Cont.].
In test [4] the target is full-length mouse CD137 on the cell surface (mouse) (UniProt P20334). Description: flow cytometry, yeast display [Cont.].
full-length mouse CD137 on the cell surface (mouse), sequence (P20334 24-178 limits assumed): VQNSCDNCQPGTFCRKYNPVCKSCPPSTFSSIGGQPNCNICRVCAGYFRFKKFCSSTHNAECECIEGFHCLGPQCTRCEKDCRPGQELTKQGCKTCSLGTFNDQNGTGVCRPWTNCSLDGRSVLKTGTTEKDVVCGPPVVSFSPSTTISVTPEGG
Test [5] has as its target full-length monkey CD137 on the cell surface (cynomolgus monkey). Description: flow cytometry, PMA/ionomycin-activated monkey T cells, antibody 100 nM.
The target in test [6] is CD27 overexpressed on HEK293F cells (UniProt P26842). Description: flow cytometry, HEK293F cells expressing the receptor, antibody 100 nM [Cont.].
CD27 overexpressed on HEK293F cells, sequence (P26842 20-260 limits assumed): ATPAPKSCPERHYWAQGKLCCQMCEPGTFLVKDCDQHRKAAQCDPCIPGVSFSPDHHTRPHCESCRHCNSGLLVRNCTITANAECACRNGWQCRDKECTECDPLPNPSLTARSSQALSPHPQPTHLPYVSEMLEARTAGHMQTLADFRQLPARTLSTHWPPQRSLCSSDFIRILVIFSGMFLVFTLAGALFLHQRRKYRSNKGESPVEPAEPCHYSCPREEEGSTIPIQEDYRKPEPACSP
Test [7] has as its target CD40 overexpressed on HEK293F cells (UniProt P25942). Described as above.
In a further test the target is CD95. The description is as above.
CD95, sequence (chain, as listed by the source limits assumed): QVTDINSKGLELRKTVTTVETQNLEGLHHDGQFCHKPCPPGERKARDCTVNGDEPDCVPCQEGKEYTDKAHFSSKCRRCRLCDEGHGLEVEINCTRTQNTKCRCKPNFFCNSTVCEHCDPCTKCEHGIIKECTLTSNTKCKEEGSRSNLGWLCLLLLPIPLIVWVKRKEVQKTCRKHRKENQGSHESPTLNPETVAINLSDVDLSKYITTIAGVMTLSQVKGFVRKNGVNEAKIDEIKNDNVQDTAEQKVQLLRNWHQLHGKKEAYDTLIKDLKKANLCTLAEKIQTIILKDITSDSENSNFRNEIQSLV
The target in test [8] is GITR overexpressed on HEK293F cells (UniProt Q9Y5U5). Described as above.
GITR overexpressed on HEK293F cells, sequence (Q9Y5U5 26-241 limits assumed): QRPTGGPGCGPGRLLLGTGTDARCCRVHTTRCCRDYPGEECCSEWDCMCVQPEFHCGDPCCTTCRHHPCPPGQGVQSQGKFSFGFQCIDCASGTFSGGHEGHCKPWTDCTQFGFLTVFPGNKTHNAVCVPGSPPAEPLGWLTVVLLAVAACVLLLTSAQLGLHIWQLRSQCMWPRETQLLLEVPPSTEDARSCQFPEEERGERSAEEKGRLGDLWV
The target in test [9] is OX40 overexpressed on HEK293F cells (UniProt P43489). The test is described as above.
OX40 overexpressed on HEK293F cells, sequence (P43489 29-277 limits assumed): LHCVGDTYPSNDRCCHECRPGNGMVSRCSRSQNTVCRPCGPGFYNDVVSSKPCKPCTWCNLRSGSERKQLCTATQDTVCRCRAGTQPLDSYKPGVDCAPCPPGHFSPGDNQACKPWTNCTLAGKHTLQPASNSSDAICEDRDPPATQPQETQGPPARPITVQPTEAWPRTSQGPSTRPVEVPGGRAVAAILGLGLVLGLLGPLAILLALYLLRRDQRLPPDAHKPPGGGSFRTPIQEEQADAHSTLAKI
In test [10] the target is full-length human CD137 on the cell surface (human) (UniProt Q07011). The test is described as above.
full-length human CD137 on the cell surface (human), sequence (Q07011 18-255): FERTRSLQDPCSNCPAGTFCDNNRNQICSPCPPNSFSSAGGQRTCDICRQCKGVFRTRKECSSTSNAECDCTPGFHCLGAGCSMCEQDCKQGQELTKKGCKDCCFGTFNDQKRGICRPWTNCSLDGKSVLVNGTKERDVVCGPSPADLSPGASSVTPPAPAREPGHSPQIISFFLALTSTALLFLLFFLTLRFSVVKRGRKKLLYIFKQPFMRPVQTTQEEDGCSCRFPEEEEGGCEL
Test [11] addresses purified C1q component of the human complement (human) (UniProt P02745). Description: ELISA, direct binding of antibody to purified human complement C1q, A450. (ELISA stands for enzyme-linked immunosorbent assay.)

Hu_CRD2 (human), sequence (Q07011 46-86 limits assumed): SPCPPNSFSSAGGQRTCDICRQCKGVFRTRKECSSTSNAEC
Hu_CRD2-CRD3 (human), sequence (Q07011 46-118 limits assumed): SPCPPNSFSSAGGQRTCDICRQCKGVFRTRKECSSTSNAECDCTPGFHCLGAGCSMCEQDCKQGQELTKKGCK
Hu_CRD1-CRD2 (human), sequence (Q07011 24-86 limits assumed): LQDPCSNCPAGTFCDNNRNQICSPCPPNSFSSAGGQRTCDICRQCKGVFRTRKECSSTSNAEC
Hu_CRD1-CRD2-CRD3 (human), sequence (Q07011 24-118 limits assumed): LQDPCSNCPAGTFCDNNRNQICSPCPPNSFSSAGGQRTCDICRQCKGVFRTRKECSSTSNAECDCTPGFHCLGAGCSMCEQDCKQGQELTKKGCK
CD40 overexpressed on HEK293F cells, sequence (P25942 21-277 limits assumed): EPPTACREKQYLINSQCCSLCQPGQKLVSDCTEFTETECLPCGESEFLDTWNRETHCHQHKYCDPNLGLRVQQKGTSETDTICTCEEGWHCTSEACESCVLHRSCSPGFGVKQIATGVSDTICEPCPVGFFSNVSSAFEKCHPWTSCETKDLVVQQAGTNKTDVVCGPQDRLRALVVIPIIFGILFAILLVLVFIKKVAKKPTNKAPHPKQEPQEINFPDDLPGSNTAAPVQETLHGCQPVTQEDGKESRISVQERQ
purified C1q component of the human complement (human), sequence (P02745 23-245, chain 1 of 3): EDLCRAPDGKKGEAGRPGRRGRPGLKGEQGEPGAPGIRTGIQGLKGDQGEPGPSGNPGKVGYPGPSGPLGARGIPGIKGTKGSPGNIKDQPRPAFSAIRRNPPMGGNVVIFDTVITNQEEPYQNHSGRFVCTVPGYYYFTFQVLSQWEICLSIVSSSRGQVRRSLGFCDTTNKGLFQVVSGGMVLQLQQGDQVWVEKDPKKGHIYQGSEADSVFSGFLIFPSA
purified C1q component of the human complement (human), sequence (P02746 28-253, chain 2 of 3, further chain): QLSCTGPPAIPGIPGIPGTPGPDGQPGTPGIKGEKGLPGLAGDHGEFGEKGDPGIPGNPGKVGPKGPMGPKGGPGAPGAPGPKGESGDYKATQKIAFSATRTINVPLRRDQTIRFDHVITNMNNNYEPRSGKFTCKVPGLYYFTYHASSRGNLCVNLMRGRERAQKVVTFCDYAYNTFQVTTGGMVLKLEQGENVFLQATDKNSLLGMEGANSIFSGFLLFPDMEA
purified C1q component of the human complement (human), sequence (P02747 29-245, chain 3 of 3, further chain): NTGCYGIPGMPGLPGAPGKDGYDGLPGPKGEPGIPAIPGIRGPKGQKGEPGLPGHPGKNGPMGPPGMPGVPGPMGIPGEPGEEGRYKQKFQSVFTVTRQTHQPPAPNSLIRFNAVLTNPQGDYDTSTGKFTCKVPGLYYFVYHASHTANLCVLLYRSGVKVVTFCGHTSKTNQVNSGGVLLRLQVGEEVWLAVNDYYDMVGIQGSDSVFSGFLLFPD
full-length monkey CD137 on the cell surface (cynomolgus monkey), sequence (Q07011 other isoform, or with tags, fused parts or gaps): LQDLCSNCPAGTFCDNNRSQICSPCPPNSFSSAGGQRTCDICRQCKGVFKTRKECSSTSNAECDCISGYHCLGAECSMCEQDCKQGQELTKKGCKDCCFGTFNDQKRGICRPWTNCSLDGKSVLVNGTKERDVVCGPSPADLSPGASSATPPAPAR

Turning to Isotype (antibody), the % in upper right quadrant worked out at 0.15% with Hu_CRD1-CRD2 (human); 0.1% in [1]; 0.18% with Hu_CRD2 (human); 0.14% with Hu_CRD2-CRD3 (human); 0.2% in [2]; 0.17% in the test with Hu_CRD3-CRD4 (human). Also, the % in upper right quadrant is 0.23% with Hu_CRD4 (human), 0.14% in test [3] and 0.18% in test [4]. The Mean turned out to be 5560 with Hu_CRD1-CRD2 (human); 3680 in test [1]; 4650 with Hu_CRD2 (human); 6280 with Hu_CRD2-CRD3 (human); 15000 in test [2]; 6860 with Hu_CRD3-CRD4 (human). Further, the Mean is 11000 with Hu_CRD4 (human); 9600 in test [3]; 14800 in test [4]; 48100 in [6]; 5140 with CD95; 8970 in test [8]. The Mean in test [9] was found to be 5300; in test [10] it was 7360. In addition, the % of cells positive for antibody binding in [5] is 1.5%. Further, the Median in test [7] amounted to 5730.

human IgG1 isotype control antibody came in with an EC50 (read off the curve) in test [11] of 2 nM.

In the test with Hu_CRD2 (human), “mouse CD137L (from UniProt P41274 104-309) (ligand)” returned a % in upper right quadrant of 0.16% and a Mean of 14600.

Broadly, the EC50 (read off the curve) is the concentration giving half of the maximal effect.

For the origin of these results see patent US20190055314A1.
